Assays:
[1] = molecular target: EphA4 on neurons of embryonic day 6 chicken nasal retinal explants (chicken) (UniProt Q07496); experiment: cell-based or functional assay
[2] = molecular target: mouse EphA4 ectodomain fused to Fc (mouse) (UniProt Q03137); experiment: competition ELISA: ephrin-A5 AP binding to immobilized EphA4 Fc
Sequence of mouse EphA4 ectodomain fused to Fc (mouse) (Q03137 20-547): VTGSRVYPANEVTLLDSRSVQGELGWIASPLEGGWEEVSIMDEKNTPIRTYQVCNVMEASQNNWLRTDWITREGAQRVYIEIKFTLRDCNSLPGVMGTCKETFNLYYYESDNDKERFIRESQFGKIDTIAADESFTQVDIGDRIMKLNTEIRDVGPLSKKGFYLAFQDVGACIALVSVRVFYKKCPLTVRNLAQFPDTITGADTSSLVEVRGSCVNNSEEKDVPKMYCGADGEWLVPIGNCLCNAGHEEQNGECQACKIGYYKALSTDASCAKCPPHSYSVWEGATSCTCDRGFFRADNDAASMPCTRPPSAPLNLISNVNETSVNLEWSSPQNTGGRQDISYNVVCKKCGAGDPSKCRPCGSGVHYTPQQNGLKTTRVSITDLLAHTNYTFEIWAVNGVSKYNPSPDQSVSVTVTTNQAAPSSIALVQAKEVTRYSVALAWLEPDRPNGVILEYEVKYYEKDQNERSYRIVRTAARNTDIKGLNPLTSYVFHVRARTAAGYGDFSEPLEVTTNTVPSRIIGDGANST

Sequence of ephrin-A5 Fc (Fc fusion) (P52803 21-203): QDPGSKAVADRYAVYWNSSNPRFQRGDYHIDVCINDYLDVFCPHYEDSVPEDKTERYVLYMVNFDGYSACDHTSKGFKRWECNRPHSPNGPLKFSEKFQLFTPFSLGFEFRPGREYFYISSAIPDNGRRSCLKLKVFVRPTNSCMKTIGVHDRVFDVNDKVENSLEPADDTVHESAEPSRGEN
Sequence of EphA4 on neurons of embryonic day 6 chicken nasal retinal explants (chicken) (Q07496 20-986): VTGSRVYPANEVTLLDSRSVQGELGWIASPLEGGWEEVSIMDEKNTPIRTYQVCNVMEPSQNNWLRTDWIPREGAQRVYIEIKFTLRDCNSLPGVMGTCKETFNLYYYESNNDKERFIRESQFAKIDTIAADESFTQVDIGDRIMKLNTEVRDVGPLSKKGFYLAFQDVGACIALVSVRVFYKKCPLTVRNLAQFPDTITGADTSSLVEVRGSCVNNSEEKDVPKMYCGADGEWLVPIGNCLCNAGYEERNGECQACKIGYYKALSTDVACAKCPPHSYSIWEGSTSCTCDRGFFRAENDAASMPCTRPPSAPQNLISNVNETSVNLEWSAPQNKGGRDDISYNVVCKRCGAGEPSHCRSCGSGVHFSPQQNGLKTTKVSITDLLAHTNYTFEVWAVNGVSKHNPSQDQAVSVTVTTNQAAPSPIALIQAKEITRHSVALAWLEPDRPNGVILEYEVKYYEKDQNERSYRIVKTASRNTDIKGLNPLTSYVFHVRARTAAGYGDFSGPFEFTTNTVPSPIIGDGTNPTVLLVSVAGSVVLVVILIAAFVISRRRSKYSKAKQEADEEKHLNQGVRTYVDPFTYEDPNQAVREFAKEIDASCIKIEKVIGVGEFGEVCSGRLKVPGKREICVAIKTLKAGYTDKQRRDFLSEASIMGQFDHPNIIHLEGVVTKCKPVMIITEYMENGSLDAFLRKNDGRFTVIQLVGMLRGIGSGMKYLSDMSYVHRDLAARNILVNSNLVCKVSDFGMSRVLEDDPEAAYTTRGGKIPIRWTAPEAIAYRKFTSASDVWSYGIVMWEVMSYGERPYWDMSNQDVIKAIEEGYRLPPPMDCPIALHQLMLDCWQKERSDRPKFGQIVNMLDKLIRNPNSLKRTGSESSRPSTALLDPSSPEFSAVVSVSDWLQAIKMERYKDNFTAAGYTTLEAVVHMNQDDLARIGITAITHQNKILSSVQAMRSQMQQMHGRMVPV

percent collapsed growth cones, chicken nasal retinal explants (experiment with APY-d3.am) [1] [%] | percent collapsed growth cones, chicken nasal retinal explants (experiment with APY-βAla8.am) [1] [%] | IC50 [2] [µM] | Substance
70 | 65 | – | ephrin-A5 Fc (Fc fusion)
– | – | 0.07 | βAla1-PY-Lys7-βAla8.am (peptide)

— US20190038704A1
